Ends that are not written are not given here.
Key:
[1] = molecular target: T1, FAM19A5 mutant M1 (human); assay: ELISA on phage-expressed FAM19A5 mutants M1-M8
T1 chain: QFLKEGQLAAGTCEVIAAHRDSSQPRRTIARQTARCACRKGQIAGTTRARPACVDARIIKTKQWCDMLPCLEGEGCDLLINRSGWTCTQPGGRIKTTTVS

[2] = molecular target: T2, FAM19A5 mutant M2 (human); assay: ELISA on phage-expressed FAM19A5 mutants M1-M8
T2 chain: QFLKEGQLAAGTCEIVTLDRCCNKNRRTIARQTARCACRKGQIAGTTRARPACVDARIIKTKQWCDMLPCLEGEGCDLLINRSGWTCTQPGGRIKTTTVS

[3] = molecular target: T3, FAM19A5 mutant M3 (human); assay: ELISA on phage-expressed FAM19A5 mutants M1-M8
T3 chain: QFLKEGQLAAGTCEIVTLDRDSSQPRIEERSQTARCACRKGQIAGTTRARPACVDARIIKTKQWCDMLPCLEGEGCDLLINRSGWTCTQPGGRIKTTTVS

[4] = molecular target: T4, FAM19A5 mutant M4 (human); assay: ELISA on phage-expressed FAM19A5 mutants M1-M8
T4 chain: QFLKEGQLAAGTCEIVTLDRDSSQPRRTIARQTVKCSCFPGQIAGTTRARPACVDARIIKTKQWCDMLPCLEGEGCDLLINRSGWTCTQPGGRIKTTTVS

[5] = molecular target: T5, FAM19A5 mutant M6 (human); assay: ELISA on phage-expressed FAM19A5 mutants M1-M8
T5 chain: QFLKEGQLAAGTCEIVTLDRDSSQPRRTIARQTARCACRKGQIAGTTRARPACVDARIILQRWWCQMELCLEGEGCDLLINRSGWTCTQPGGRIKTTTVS

[6] = molecular target: T6, FAM19A5 mutant M7 (human); assay: ELISA on phage-expressed FAM19A5 mutants M1-M8
T6 chain: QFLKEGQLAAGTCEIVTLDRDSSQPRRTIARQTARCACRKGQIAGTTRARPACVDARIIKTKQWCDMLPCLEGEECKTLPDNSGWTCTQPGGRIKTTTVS

[7] = molecular target: T7, FAM19A5 mutant M8 (human); assay: ELISA on phage-expressed FAM19A5 mutants M1-M8
T7 chain: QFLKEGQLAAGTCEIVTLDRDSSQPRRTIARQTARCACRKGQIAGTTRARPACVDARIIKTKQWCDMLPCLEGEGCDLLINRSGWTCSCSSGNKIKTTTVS

[8] = molecular target: T8, FAM19A5 epitope fragment F1, BSA-conjugated (human, also: conjugated to BSA); assay: ELISA, plate-coated BSA-conjugated FAM19A5 fragments F1-F6
T8 construct: which number belongs to which fragment is not spelled out
T8 peptide: QLAAGTCEIVTLDR
Protocol: (§1) Binding of the different anti-FAM19A5 antibodies to the BSA-conjugated peptide fragments F1-F6 was determined by Western blot analysis or ELISA assay. For the Western blot analysis, BSA-conjugated FAM19A5 fragments F1-F6 were separated by SDS polyacrylamide gel electrophoresis and transferred to a nitrocellulose membrane by the standard procedure. The membrane was incubated with the anti-FAM19A5 antibody (e.g., 1-65, […], 1-65-scFv-rabbit Fc-SSS), and the antigen-antibody complexes were detected with the appropriate secondary antibody conjugated with horse-radish peroxidase (anti-rabbit IgG (Fc specific)-HRP, 1:4000 dilution). For the ELISA assay, the following protocol was used. FAM19A5 fragment F1-F6 (diluted to 1 μg/mL in 50 mM carbonate buffer (Biosesang) or to 20 μg/mL for high concentration analysis) were used to coat the wells of 96-well immuno plates (Thermo Scientific) (100 μL/well) overnight at 4° C. and then subsequently washed twice in 1×PBS. The plates were then blocked with the blocking buffer (100 μL/well) for 1 hour at room temperature. During the 1-hour incubation, the relavant anti-FAM19A5 antibodies were diluted to 1 μg/mL (or 20 μg/mL for high concentration analysis) in the diluent buffer. Once the plates were washed (2× using 1×PBS), the diluted anti-FAM19A5 antibodies were added to the appropriate wells, and the plates were incubated at room temperature for 1 hour. The plates were subsequently washed for a total of five times using the washing buffer. Next, the ODP substrate (prepared by dissolving one ODP tablet (O-phenylenediamine Dihydrochloride, Thermo) into 9 mL of sterilized deionized water and 1 mL of 10× stable Peroxide Stable buffer (Theromo)) was added to each of the wells, and the color change reaction was allowed to occur for 10 minutes. This reaction was stopped by adding 100 μL of 2N H2SO4 (Daejung) to the wells. The absorption value of each of the wells was detected at 492 nm using a 96-well microplate reader (Molecular Device).
(§2) As shown in FIGS. 19 and 20A, the anti-FAM19A5 antibody 1-65 bound strongly to fragment F5 as measured by both Western Blot and ELISA assay, respectively.

[9] = molecular target: T9, FAM19A5 epitope fragment F2, BSA-conjugated (human, conjugated to BSA); assay: as above
T9 peptide: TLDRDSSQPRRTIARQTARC
Protocol: as §1, §2

[10] = molecular target: T10, FAM19A5 epitope fragment F3, BSA-conjugated (human, conjugated to BSA); assay: as above
T10 peptide: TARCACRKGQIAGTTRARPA
Protocol: as §1, §2

[11] = molecular target: T11, FAM19A5 epitope fragment F4, BSA-conjugated (human, conjugated to BSA); assay: as above
T11 peptide: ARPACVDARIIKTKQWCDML
Protocol: as §1, §2

[12] = molecular target: T12, FAM19A5 epitope fragment F5, BSA-conjugated (human, conjugated to BSA); assay: as above
T12 peptide: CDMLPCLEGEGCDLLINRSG
Protocol: as §1, §2

[13] = molecular target: T13, FAM19A5 epitope fragment F6, BSA-conjugated (human, conjugated to BSA); assay: as above
T13 peptide: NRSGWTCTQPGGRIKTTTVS
Protocol: as §1, §2

[14] = molecular target: T14, Human FAM19A5 protein (Wild Type) (human, UniProt Q7Z5A7 44-132); assay: value given in the HDX-MS sample preparation; method of its determination not stated
T14 construct: also called FAM19A5 antigen; TAFA5

[15] = molecular target: T15, F2-01-BSA (#1) (human, conjugated to BSA); assay: ELISA, plate-coated F2 mutant peptides (BSA-conjugated)
T15 construct: already contained in the entry; also called mutant F2 peptide fragment #1
T15 peptide: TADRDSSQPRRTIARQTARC

[16] = molecular target: T16, F2-02-BSA (#2) (human, conjugated to BSA); assay: as above
T16 construct: already contained in the entry; also called mutant F2 peptide fragment #2
T16 peptide: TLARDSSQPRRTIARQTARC

[17] = molecular target: T17, F2-04-BSA (#4) (human, conjugated to BSA); assay: as above
T17 construct: already contained in the entry; also called mutant F2 peptide fragment #4
T17 peptide: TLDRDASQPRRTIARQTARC

[18] = molecular target: T18, F2-05-BSA (#5) (human, conjugated to BSA); assay: as above
T18 construct: already contained in the entry; also called mutant F2 peptide fragment #5
T18 peptide: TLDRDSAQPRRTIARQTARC

[19] = molecular target: T19, F2-06-BSA (#6) (human, conjugated to BSA); assay: as above
T19 construct: already contained in the entry; also called mutant F2 peptide fragment #6
T19 peptide: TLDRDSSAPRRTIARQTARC

[20] = molecular target: T20, F2-07-BSA (#7) (human, conjugated to BSA); assay: as above
T20 construct: already contained in the entry; also called mutant F2 peptide fragment #7
T20 peptide: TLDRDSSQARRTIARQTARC

[21] = molecular target: T21, F2-08-BSA (#8) (human, conjugated to BSA); assay: as above
T21 construct: already contained in the entry; also called mutant F2 peptide fragment #8
T21 peptide: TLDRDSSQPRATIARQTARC

[22] = molecular target: T22, F2-09-BSA (#9) (human, conjugated to BSA); assay: as above
T22 construct: already contained in the entry; also called mutant F2 peptide fragment #9
T22 peptide: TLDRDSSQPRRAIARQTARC

[23] = molecular target: T23, F2-10-BSA (#10) (human, conjugated to BSA); assay: as above
T23 construct: already contained in the entry; also called mutant F2 peptide fragment #10
T23 peptide: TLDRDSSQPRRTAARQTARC

[24] = molecular target: T24, F2-12-BSA (#12) (human, conjugated to BSA); assay: as above
T24 construct: already contained in the entry; also called mutant F2 peptide fragment #12
T24 peptide: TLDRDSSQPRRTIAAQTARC

[25] = molecular target: T25, F2-13-BSA (#13) (human, conjugated to BSA); assay: as above
T25 construct: already contained in the entry; also called mutant F2 peptide fragment #13
T25 peptide: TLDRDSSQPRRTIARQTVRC

[26] = molecular target: T9, FAM19A5 epitope fragment F2, …; assay: ELISA, plate-coated BSA-conjugated FAM19A5 fragments F1-F6 (data not shown)
Protocol: Binding of the different anti-FAM19A5 antibodies to the BSA-conjugated peptide fragments F1-F6 was determined by Western blot analysis or ELISA assay. For the Western blot analysis, BSA-conjugated FAM19A5 fragments F1-F6 were separated by SDS polyacrylamide gel electrophoresis and transferred to a nitrocellulose membrane by the standard procedure. The membrane was incubated with the anti-FAM19A5 antibody (e.g., 1-65, […], 1-65-scFv-rabbit Fc-SSS), and the antigen-antibody complexes were detected with the appropriate secondary antibody conjugated with horse-radish peroxidase (anti-rabbit IgG (Fc specific)-HRP, 1:4000 dilution). For the ELISA assay, the following protocol was used. FAM19A5 fragment F1-F6 (diluted to 1 μg/mL in 50 mM carbonate buffer (Biosesang) or to 20 μg/mL for high concentration analysis) were used to coat the wells of 96-well immuno plates (Thermo Scientific) (100 μL/well) overnight at 4° C. and then subsequently washed twice in 1×PBS. The plates were then blocked with the blocking buffer (100 μL/well) for 1 hour at room temperature. […] The absorption value of each of the wells was detected at 492 nm using a 96-well microplate reader (Molecular Device).
as §2

B1: Anti-FAM19A5 antibody 2-13 (antibody, V domains shown)
VH: AVTLDESGGGLQTPGGALSLVCKASGFTFSSHGMFWVRQTPGKGLEYVAEITNDGSGTNYGSAVKGRATISRDNGQSTVRLQLNNLRAEDTGTYFCARSTYECPGGFSCWGDTGQIDAWGHGTEVIVSS
VL: ALTQPSSVSANPGETVKITCSGGSYSYGWFQQKSPGSALVTVIYWDDERPSDIPSRFSGALSGSTNTLTITGVQADDEAVYFCGTEDISGTAGVFGAGTTLTVL
notes: also called clone 2-13
- binding result [1]: binds
- binding result [2]: binds
- binding result [3]: binds
- binding result [4]: no binding
- binding result [5]: binds
- binding result [6]: binds
- binding result [7]: no binding
- binding result [8]: no binding
- binding result [9]: no binding
- binding result [10]: no binding
- binding result [11]: no binding
- binding result [12]: no binding
- binding result [13]: no binding
- Kd [14]: 1 nM

B2: Anti-FAM19A5 antibody 1-28 (antibody, V domains shown)
VH: AVTLDESGGGLQTPGGALSLVCKASGFDFSDYGMGWVRQAPGKGLEWVAAIRSDGSNPSYGSAVKGRATISKDNGRSTVRLQLNNLRAEDTATYYCAKDGNGYCALDAYRSGGYSCGVYPGSIDAWGHGTEVIVSS
VL: ALTQPSSVSANLEGTVEITCSGSGYGYGWYQQKSPGSAPVTVIYQNDKRPSDIPSRFSGSKSGSTGTLTITGVQVEDEAVYYCGSEDSSTLAGIFGAGTTLTVL
- binding result [2]: no binding
- binding result [15]: binds
- binding result [16]: binds
- binding result [17]: binds
- binding result [18]: binds
- binding result [19]: binds
- binding result [20]: binds
- binding result [21]: binds
- binding result [22]: binds
- binding result [23]: binds
- binding result [24]: binds
- binding result [25]: binds
- binding result [26]: binds
